Measured values taken from patent US20250264471A1 (INDI MOLECULAR, published 2025).
Numbered stars: 1 amine (or outer) side, 2 acyl side, 3 side chain; on linkers, the order of the positions; unused ones are H or OH. Bridge positions count the residues as written; N and C are the ends. Square brackets hold non-standard residues; d marks the D form. Primed or numbered codes have the meaning given here. Ends that are not written are not given here. I, II: the chains in the order shown. * marks the point of attachment. Az8″ = 2-amino-10-azidodecanoic acid (azido amino acid), [N-]=[N+]=NCCCCCCCC[C@H](N[*:1])C(=O)[*:2]; Butanoyl(4-ethynyl) = C#CCCCC(=O)*; Biotin′ = not defined here; Pra = C#CC[C@H](N)C(=O)O; C8N3 = not defined here; 5HA = not defined here; Az8 = not defined here

Columns and labels:
[1] = target: T1, Akt1-S473E-T308P (H. sapiens, UniProt P31749 118-480 (human entry), phosphorylated at residue T308 (phosphothreonine)); assay: kinase kinetics, Dixon plot of 1/v vs. [Triligand] with varying [ATP]; noncompetitive
T1 construct: Fully active kinase; T308P means phospho-T308, not a proline substitution; Same construct as Akt1-S473E; also called Akt-S473E-T308P; Akt-S473E/T308P
T1 chain: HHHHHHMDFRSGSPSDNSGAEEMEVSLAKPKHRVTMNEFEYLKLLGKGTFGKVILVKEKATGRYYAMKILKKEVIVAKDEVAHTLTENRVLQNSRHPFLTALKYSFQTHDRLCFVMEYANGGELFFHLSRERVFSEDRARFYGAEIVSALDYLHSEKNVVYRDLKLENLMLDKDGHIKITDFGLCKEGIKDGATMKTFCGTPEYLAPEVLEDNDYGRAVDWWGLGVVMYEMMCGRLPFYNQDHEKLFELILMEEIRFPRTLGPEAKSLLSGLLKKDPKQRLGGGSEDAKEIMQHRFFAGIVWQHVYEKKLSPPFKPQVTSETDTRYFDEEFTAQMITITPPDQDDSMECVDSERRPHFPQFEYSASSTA
Procedure: To determine the inhibition mode of the triligand with respect to the ATP, kinase reactions were set up with increasing concentrations of ATP. The reactions were set up in a similar manner to that described above. The concentration of Biotin-Crosstide was held constant at 25 μM and the concentration of enzyme was held at […]. The concentration of ATP ranged from 125 μM to 4 μM (125 μM, 63 μM, 32 μM, 16 μM, 8 μM, 4 μM) while the concentration of triligand varied from 0 to 10 μM (0, 1 μM, 5 μM, 10 μM). [γ-³²P]-ATP (7000 Ci/mmol, 10 μCi/μL) was added to the cold ATP stock to maintain an [ATP]ₜₒₜₐₗ/[γ-³²P]-ATP ratio of 1667. The reactions were incubated, quenched, and analyzed as described above.
KM and Vₘₐₓ values for Akt1-S473ET308P were obtained by nonlinear regression from the results of the inhibition experiments (GraphPad). The literature values for the Michaelis constants for ATP and substrate peptide were taken from Klein 2005. The triligand Kᵢ (noncompetitive inhibition) was obtained from the negative X-intercept of the Dixon plot of 1/v vs. [Triligand] with varying [ATP]. The Kᵢ is the mean value of the observed X-intercepts and the error range is the standard deviation. The triligand K_{i′}, (uncompetitive inhibition) was obtained from the intercept of the Dixon plot of 1/v vs. [Triligand] with varying [Peptide]. […]

[2] = target: T2, Akt1-S473E (H. sapiens, UniProt P31749 118-480 (human entry)); assay: SPR (Biacore T100): biotinylated triligand on streptavidin chip, Akt1-S473E 9000 nM to 1 nM as analyte, 10 °C, from kinetic constants
T2 construct: Partially active Akt1 kinase domain expressed in Hi5 insect cells from pVLAKT.2; also called Akt-S473E; AktS473E
T2 chain: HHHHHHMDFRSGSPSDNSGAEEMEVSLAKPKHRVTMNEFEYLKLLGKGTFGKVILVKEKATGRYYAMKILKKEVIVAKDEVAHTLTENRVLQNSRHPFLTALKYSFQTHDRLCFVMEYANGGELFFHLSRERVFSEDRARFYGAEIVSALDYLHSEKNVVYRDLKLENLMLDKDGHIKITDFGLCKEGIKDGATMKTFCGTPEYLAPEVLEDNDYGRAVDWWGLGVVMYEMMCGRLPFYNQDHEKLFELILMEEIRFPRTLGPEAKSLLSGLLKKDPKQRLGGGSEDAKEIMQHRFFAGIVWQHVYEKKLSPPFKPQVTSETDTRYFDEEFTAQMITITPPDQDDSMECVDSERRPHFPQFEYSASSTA
Procedure: For this experiment, the biotinylated triligand was immobilized on a streptavidin-derivatized biacore chip and probed with Akt-S473E at concentrations ranging from 9 μM to 1 nM.
Triligand binding affinity was further analyzed by SPR using a Biacore T100. A Streptavidin Chip (Series S, G.E. Healthcare) was conditioned as recommended by the manufacturer. Biotinylated ligand was diluted into HBSP+ Buffer (G.E. Healthcare) to a final concentration of 100 nM and 137 RU was immobilized on the chip. Akt1-S473E was prepared as described previously and subjected to buffer exchange into HBSP+using Zeba Desalting Columns (Pierce). Serial dilutions of the enzyme were made in HBSP+ buffer (9000 nM to 1 nM) and flowed over the chip at 50 μL/minute. Binding and dissociation were carried out at 10° C. with a contact time of 360 seconds, a dissociation time of 400 seconds, and a stabilization time of 200 seconds. The response was corrected using an unmodified reference flow cell. Kinetic constants were obtained from the sensograms and used to calculate the dissociation constant.

[3] = target: T2, Akt1-S473E; assay: ELISA: Akt-S473E on Ni-NTA plate, biotinylated peptide titrated, SA-HRP
Procedure: 3 μg of Akt-S473E was added to each well in a HisSorb Ni-NTA plate (Qiagen) in 50 μL of ELISA blocking buffer (25 mM Tris-CI (pH=7.5), 150 mM NaCl, 10 mM MgCl₂, 0.1% (v/v) Tween-20, and 4 mg/mL BSA). 50 μL of imidazole blocking buffer (25 mM Tris-CI (pH=7.5), 150 mM NaCl, 10 mM MgCl₂, 0.1% (v/v) Tween-20, 100 mM imidazole, and 4 mg/mL BSA) was added to the control wells. After 18 hours at 4° C., the wells were washed with ELISA blocking buffer and 50 μL of each ligand dilution was added in ELISA blocking buffer. The ligands were bound at 4° C. for 120 minutes followed by three washed in ELISA blocking buffer. 50 μL of horseradish peroxidase-conjugated streptavidin (SA-HRP, Thermo) was added (1:5000 dilution in ELISA blocking buffer) and incubated for 70 minutes at 4° C. The wells were washed three times in TBST (Tris-buffered saline+0.2% Tween-20) and once in TBS (Tris-buffered saline). 50 μL of peroxidase substrate (KPL) was added to generate the final signal which was quenched in 1 M H₂SO₄ and quantitated on a 96-well plate reader at λ=450 nm. The Net A450 was calculated by subtracting the A450 of each blank well (No Akt-S473E) from the experimental well. The data were fit by non-linear regression in GraphPad Prism.

[4] = target: T2, Akt1-S473E; assay: ELISA

B1: Akt triligand (biotinylated) (designed binder)
peptide 1: {5HA-C8N3}-VFYRLGY-{Biotin′}
peptide 2: Ac-[Pra]FWFLRG-NH2
peptide 3: {Ac-C8N3}-RHERI-NH2
modifications: triazole II:N-II:1; reading uncertain; also: triazole to a chain's N-terminus
notes: Assembled from 5HA-Biligand-Bio and Ac-C8N3-RHERI-CONH2; also called branched triligand
- Ki [1]: 4 µM
- Kd [2]: 0.2 µM

B2: 5HA-Biligand-Bio (Akt biligand) (designed binder)
peptide 1: {Butanoyl(4-ethynyl)-Az8}-VFYRLGY-biotin
peptide 2: Ac-[Pra]FWFLRG-NH2
modifications: triazole II:N-II:1; reading uncertain; also: mixture of diastereomers
notes: Branched peptide, mixture of diastereomers; also called biotinylated biligand
- fold improvement in affinity relative to the anchor peptide [3]: > 100 fold

B3: biotinylated anchor ligand Az8-VFYRLGY-Biotin (peptide)
peptide: [Az8″]VFYRLGY-biotin
notes: also called anchor peptide; biotinylated anchor peptide
- Kd [4]: 25 µM
